Data set [1] concerns the target T1, RecU D88N D88N (Bacillus subtilis) (UniProt P39792).
T1 sequence: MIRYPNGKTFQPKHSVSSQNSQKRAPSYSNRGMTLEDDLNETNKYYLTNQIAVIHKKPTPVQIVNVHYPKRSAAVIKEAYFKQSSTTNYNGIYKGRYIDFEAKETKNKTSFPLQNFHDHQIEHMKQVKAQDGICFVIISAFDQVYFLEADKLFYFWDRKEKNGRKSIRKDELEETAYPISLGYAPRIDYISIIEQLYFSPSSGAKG
Put plainly: thermofluor. Conditions: 1:1 molar ratio; Thermofluor: 100 mM MES pH 6.5, 5 ug RecU D88N per well, DNA 1:1 molar, Sypro orange, 25-100 C in 1 C steps; crystals: 0.1 M BICINE pH 9, 10% PEG 6000, 17 C …. In general terms: In DSF a fluorescence change marks the thermal transition of the protein.

In data set [2] the target is T2, RecU D88N (Bacillus subtilis, UniProt P39792 1-206, D88N).
T2 sequence: T1 sequence
Put plainly: X-ray crystallography (3.2 A); 0.1 M BICINE pH 9, 10% PEG 6000; Thermofluor: 100 mM MES pH 6.5, 5 ug RecU D88N per well, DNA 1:1 molar, Sypro orange, 25-100 C in 1 C steps; crystals: 0.1 M BICINE pH 9, 10% PEG 6000, 17 C, protein:DNA 1:1.25. The conditions noted are these: protein: recombinant; chain copies: 2; blunt; self-complementary, 2 strand copies.

Data set [3] deals with the molecule itself. Kind of data set: crystal structure; RecU D88N mixed with 12 bp palindromic DNA at 1:1.25 molar ratio; crystals in 0.1 M BICINE pH 9, 10% PEG 6000, 17°C; 3.2 Å, space group R32, four RecU chains in the asymmetric unit.

Take HJ 10 bp: the binding signal in data set [1] is 6.7 delta Tm, C.

Turning to HJ 11 bp, in data set [1], the binding signal was 8.2 delta Tm, C.

On to HJ 12 bp (HJ24?), for which the binding signal in data set [1] is 10.1 delta Tm, C.

B1: 12 bp palindromic duplex (dsDNA)
DNA 1: ACGCAATTGCGT
DNA 2: ACGCAATTGCGT
For the molecule B1, the binding result in data set [2] was “binds”.

B2: RecU D88N, catalytically inactive mutant of the Holliday junction resolving enzyme RecU from Bacillus subtilis (enzyme, UniProt P39792 1-206, looked up)
chain: T1 sequence
notes: the N-terminal region (residues 1-33), the stalk (56-89) and the cap (34-55 and 90-199) are seen in the structure
For B2, the binding result in data set [3] is “binds”.

Values taken from paper PMC5314769, “Structural insights into dynamics of RecU–HJ complex formation elucidates key role of NTR and stalk region toward formation of reactive state” (Nucleic Acids Research, 2016).
